Laboratory results from patent US20180273595A1 (REGENTS OF THE UNIVERSITY OF MICHIGAN, published 2018).
Residue numbers refer to the chain shown, from its start. One block for each binder: values may come before it. Where no end group is shown, it is not given here. The star is where a group is joined. Biotin = O=C1N[C@H]2[C@H](CS[C@H]2CCCCC(=O)*)N1

Experiments:
[1] = molecular target: T1, recombinant His-tagged full-length ERG (UniProt P11308 1-479, biotinylated with NHS-PEG4 biotin for the OctetRED assays); experiment: Kd table of synthetic peptides on ERG; assay not given
T1 construct: mature; Baculovirus expression in SF9 cells, Ni-NTA purified; also called wild-type ERG; wtERG; not shown: His tag
T1 sequence (looked up): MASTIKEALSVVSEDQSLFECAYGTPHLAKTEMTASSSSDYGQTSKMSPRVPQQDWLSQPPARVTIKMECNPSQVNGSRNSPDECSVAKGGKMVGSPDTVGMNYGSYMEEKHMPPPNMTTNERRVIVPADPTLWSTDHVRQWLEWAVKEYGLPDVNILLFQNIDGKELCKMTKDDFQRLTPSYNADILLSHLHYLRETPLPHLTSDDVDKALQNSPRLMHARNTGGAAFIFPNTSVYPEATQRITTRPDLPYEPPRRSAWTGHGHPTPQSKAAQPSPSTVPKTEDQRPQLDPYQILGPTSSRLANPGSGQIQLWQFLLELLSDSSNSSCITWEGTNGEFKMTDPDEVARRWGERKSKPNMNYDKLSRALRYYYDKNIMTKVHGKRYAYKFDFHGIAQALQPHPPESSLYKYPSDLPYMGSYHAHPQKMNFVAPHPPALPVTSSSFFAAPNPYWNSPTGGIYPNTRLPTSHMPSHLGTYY

[2] = molecular target: T1, recombinant His-tagged full-length ERG; experiment: binding assay of capped EIP1 variants (FIG. 13); capped EIP1, L5E
[3] = molecular target: T1, recombinant His-tagged full-length ERG; experiment: binding assay of capped EIP1 variants (FIG. 13); capped EIP1, Y4K
[4] = molecular target: T1, recombinant His-tagged full-length ERG; experiment: binding assay of capped EIP1 variants (FIG. 13); capped EIP1, Y4E
[5] = molecular target: T2, ERG_Y373A (purified recombinant ERG with Y373A) (UniProt P11308 1-479, limits assumed, biotinylated for OctetRED); experiment: pull-down of purified recombinant proteins with biotin peptide
T2 construct: also called Y373A mutation
T2 sequence (looked up): T1 sequence (looked up) with Y373A

[6] = molecular target: T3, TMPRSS2:ERG gene fusion product, endogenous in VCaP cells (UniProt P11308 33-479, limits assumed); experiment: pull-down of VCaP lysate with biotinylated peptide, ERG immunoblot
T3 construct: In cell lysates, in cells or in xenograft tumors; also called endogenous ERG; VCaP ERG
T3 sequence (looked up): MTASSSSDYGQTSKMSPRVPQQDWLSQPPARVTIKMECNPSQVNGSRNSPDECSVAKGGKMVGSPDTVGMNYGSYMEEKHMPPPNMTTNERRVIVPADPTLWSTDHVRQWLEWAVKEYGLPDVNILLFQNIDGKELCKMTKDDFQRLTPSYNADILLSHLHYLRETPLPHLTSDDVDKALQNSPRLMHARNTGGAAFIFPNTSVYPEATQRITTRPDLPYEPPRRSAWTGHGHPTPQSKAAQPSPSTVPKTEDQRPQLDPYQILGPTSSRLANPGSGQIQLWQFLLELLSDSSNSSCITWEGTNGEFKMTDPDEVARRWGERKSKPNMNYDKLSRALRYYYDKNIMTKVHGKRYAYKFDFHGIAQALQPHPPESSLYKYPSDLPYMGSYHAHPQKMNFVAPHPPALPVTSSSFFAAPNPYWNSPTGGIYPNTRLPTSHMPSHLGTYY

[7] = molecular target: T4, wild-type ERG endogenous in HUVEC cells (human, UniProt P11308 1-479, limits assumed); experiment: pull-down of whole cell lysate with biotinylated peptide, WB: αERG
T4 construct: also called HUVEC ERG
T4 sequence (looked up): T1 sequence (looked up)

[8] = molecular target: T5, wild-type ERG endogenous in MS1 mouse endothelial cells (mouse, UniProt P81270 1-486, limits assumed); experiment: as above
T5 construct: also called mERG; MS1 ERG
T5 sequence (looked up): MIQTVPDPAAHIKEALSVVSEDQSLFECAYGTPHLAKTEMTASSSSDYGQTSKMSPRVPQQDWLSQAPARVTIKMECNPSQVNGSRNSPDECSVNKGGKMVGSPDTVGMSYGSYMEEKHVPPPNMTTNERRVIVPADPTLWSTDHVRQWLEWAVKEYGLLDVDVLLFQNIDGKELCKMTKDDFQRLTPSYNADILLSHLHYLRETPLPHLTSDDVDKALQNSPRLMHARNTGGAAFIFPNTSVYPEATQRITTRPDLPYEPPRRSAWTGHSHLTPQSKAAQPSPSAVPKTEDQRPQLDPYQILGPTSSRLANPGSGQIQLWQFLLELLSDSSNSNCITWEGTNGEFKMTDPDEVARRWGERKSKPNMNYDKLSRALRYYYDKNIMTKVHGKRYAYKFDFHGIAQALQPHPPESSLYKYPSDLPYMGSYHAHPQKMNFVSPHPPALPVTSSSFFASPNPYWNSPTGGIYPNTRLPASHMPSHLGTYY

[9] = molecular target: T1, recombinant His-tagged full-length ERG; experiment: pull-down of purified recombinant protein with biotinylated peptide, immunoblot
[10] = molecular target: T6, endogenous ETV1 protein of LNCaP cells (UniProt P50549 1-477, limits assumed); experiment: pull-down of cell lysate with biotinylated peptide, immunoblot αETV1
T6 sequence (looked up): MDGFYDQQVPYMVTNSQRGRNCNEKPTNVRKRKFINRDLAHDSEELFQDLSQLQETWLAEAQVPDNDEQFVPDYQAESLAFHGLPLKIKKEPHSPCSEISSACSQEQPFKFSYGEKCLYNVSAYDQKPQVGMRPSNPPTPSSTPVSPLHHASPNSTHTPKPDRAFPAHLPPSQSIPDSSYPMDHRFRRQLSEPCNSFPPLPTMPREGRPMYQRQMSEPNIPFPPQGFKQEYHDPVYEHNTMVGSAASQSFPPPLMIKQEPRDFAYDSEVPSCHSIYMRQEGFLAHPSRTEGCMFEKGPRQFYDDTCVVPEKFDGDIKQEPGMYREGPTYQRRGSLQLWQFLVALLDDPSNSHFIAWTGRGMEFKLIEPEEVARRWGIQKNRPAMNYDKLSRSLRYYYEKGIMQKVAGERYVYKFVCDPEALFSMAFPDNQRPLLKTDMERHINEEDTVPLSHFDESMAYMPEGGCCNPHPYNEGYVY

[11] = molecular target: T7, Halo-tagged full-length Spi1 (UniProt P17947 1-270); experiment: pull-down of Halo-tagged proteins with biotin peptide
T7 construct: mature; not shown: Halo-tag at the N-terminus

[12] = molecular target: T8, Halo-tagged ERG mutant Y373A (UniProt P11308 1-479); experiment: as above
T8 construct: mature; also called ERG (Y373A); negative control ERG (Y373A); not shown: Halo-tag at the N-terminus
T8 sequence (looked up): T1 sequence (looked up) with Y373A

B1: capped EIP1 with L at position five mutated to E (peptide)
peptide: Ac-LPPYEFT-NH2
Kd [1]: 5.09 µM | Kd [2]: 5.1 µM

B3: capped EIP1 with Y at position four mutated to E (peptide)
peptide: Ac-LPPELFT-NH2
Kd [1]: 3.6 µM | Kd [4]: 3.6 µM

B4: biotinylated EIP1 peptide (Biotin-LPPYLFT) (peptide)
peptide: Biotin-LPPYLFT
notes: also called Biotin-EIP1; biotin-conjugated EIP1
binding result [5]: no binding

Continued, values first:

Kd [1]: 4.27 µM | Kd [3]: 4.3 µM
B2: capped EIP1 with Y at position four mutated to K (peptide)
peptide: Ac-LPPKLFT-NH2

binding result [6]: no binding (tested: 20 µM) | binding result [7]: no binding | binding result [8]: no binding | binding result [9]: no binding | binding result [10]: no binding (tested: 50 µM)
B5: biotinylated muEIP1 peptide (peptide)
peptide: LPPALFT
modifications: also: biotin, position not given here
notes: also called biotin-muEIP1

binding result [11]: no binding | binding result [12]: no binding
B6: biotinylated EIP2 peptide (Biotin-LSFGSLP) (peptide)
peptide: Biotin-LSFGSLP
notes: also called biotin-EIP2
